{"source": "patent US11653679B2", "about": "“High-purity steviol glycosides” (PureCircle Sdn Bhd, priority 2014, dated 2023)", "molecules": {"B1": {"name": "UGTLB: UDP-glucosyltransferase, Lycium barbarum, SEQ ID NO:10 (protein, listed as Escherichia coli)", "chain": "MGTEVTVHKNTLRVLMFPWLAYGHISPFLNVAKKLVDRGFLIYLCSTAINLKSTIKKIPEKYSDSIQLIELHLPELPELPPHYHTTNGLPPHLNHTLQKALKMSKPNFSKILQNLKPDLVIYDLLQQWAEGVANEQNIPAVKLLTSGAAVLSYFFNLVKKPGVEFPFPAIYLRKNELEKMSELLAQSAKDKEPDGVDPFADGNMQVMLMSTSRIIEAKYIDYFSGLSNWKVVPVGPPVQDPIADDADEMELIDWLGKKDENSTVFVSFGSEYFLSKEDREEIAFGLELSNVNFIWVARFPKGEEQNLEDALPKGFLERIGDRGRVLDKFAPQPRILNHPSTGGFISHCGWNSVMESVDFGVPIIAMPIHLDQPMNARLIVELGVAVEIVRDDYGKIHREEIAEILKDVIAGKSGENLKAKMRDISKNLKSIRDEEMDTAAEELIQLCKNSPKLK"}, "B2": {"name": "gi460409128_XP_004249992.1: cyanidin-3-O-glucoside 2-O-glucuronosyltransferase-like [Solanum lycopersicum], SEQ ID NO:5; S129N04 is its Example 22 reaction sample (protein, listed as Solanum lycopersicum)", "chain": "MSPKLHKELFFHSLYKKTRSNHTMATLKVLMFPFLAYGHISPYLNVAKKLADRGFLIYFCSTPINLKSTIEKIPEKYADSIHLIELHLPELPQLPPHYHTTNGLPPNLNQVLQKALKMSKPNFSKILQNLKPDLVIYDILQRWAKHVANEQNIPAVKLLTSGAAVFSYFFNVLKKPGVEFPFPGIYLRKIEQVRLSEMMSKSDKEKELEDDDDDDDLLVDGNMQIMLMSTSRTIEAKYIDFCTALTNWKVVPVGPPVQDLITNDVDDMELIDWLGTKDENSTVFVSFGSEYFLSKEDMEEVAFALELSNVNFIWVARFPKGEERNLEDALPKGFLERIGERGRVLDKFAPQPRILNHPSTGGFISHCGWNSAMESIDFGVPIIAMPMHLDQPMNARLIVELGVAVEIVRDDDGKIHRGEIAETLKGVITGKTGEKLRAKVRDISKNLKTIRDEEMDAAAEELIQLCRNGN"}}, "type_in_all_cases": "biochemical", "key": {"[1]": {"assay": "Activity for Rebaudioside A to Rebaudioside D conversion with UGTSL2, UGTLB (Examples 30, 32)", "conditions": "UGTLB, 22 h., 600 μL lysate, based on initial concentration of Rebaudioside A", "method": "(§1) Activity tests were performed at 3 mL scale with 60 μL of lysate for the transformation of Rebaudioside A using 0.5 mM of substrate, 2.5 mM of UDP-Glucose and 3 mM MgCl2 in 50 mM Sodium Phosphate buffer at pH 7.2. Samples were taken and analyzed by HPLC. The HPLC assay was performed as described in EXAMPLE 20.\nas §1, with “600” for “60”, “corresponding chromatogram after 23 h. of reaction is depicted” for “HPLC assay was performed as described”, “FIG. 63c.” for “EXAMPLE 20.”"}, "[2]": {"assay": "Activity for Rubusoside to Rebaudioside E conversion with UGTSL, UGTSL2, UGTLB (Examples 29, 32)", "conditions": "600 μL lysate, based on initial concentration of Rubusoside; for Rebaudioside E formation: 0.5 mM Rubusoside; for Rubusoside conv. (reaction time): 0.5 mM substrate", "method": "as §1, with “600” for “60”, “Rubusoside” for “Rebaudioside A”\n(§2) Activity tests were performed at 3 mL scale with 600 μL of lysate for the transformation of Rubusoside using 0.5 mM of substrate, 2.5 mM of UDP-Glucose and 3 mM MgCl2 in 50 mM Sodium Phosphate buffer at pH 7.2. Samples were taken and analyzed by HPLC. The corresponding chromatograms are depicted in FIG. 63b."}, "[3]": {"assay": "Rubusoside conversion products with UGTSL, UGTSL2, UGTLB by LCMS (Example 33)", "conditions": "reaction time UGTSL2 2 hrs, UGTLB 5 hrs, UGTSL 45 hrs", "method": "(§3) Conversion of stevioside with UGTSL and UGTSL2 was conducted in similar manner to Example 28, and the conversion of rubusoside with UGTSL and UGTSL2 was conducted similarly to Example 29. Conversions of rubusoside and stevioside with UGTLB was conducted similarly to Example 32.\n(§4) The reaction mixtures were analyzed by LCMS to determine all reaction products."}, "[4]": {"assay": "Activity for Stevioside to Rebaudioside E conversion with UGTSL, UGTSL2, UGTLB (Examples 28, 32)", "conditions": "600 μL lysate, based on initial concentration of Stevioside; for Rebaudioside E formation: 0.5 mM Stevioside; for Stevioside conv. (reaction time): 0.5 mM substrate", "method": "as §1, with “600” for “60”, “Stevioside” for “Rebaudioside A”, “HPLC. HPLC Analysis.” for “HPLC.”\nas §2, with “Stevioside” for “Rubusoside”, “63a.” for “63b.”"}, "[5]": {"assay": "Stevioside conversion products with UGTSL, UGTSL2, UGTLB by LCMS (Example 33)", "conditions": "reaction time UGTSL2 2 hrs, UGTLB 2 hrs, UGTSL 22 hrs", "method": "as §3, §4"}, "[6]": {"assay": "LC-MS of reaction mixtures of GI No. 460409128 with Rebaudioside A (Example 23)", "method": "The reaction mixtures representing GI No. 460409128, particularly the sample “12400 S115N05A7 T24h 130627ABA” of EXAMPLE 20 (hereinafter S115N05A7), and the sample “12400 S129N04 T45h 130712ABA” of EXAMPLE 22 (hereinafter S129N04) were additionally assayed by LC-MS to identify the unknown glycosides. An Agilent 1200 series HPLC system, equipped with binary pump (G1312B), autosampler (G1367D), thermostatted column compartment (G1316B), DAD detector (G1315C), connected with Agilent 6110A MSD, and interfaced with “LC/MSD Chemstation” software, was used.\nThe compound observed on LCMS system at 3.5 min, corresponds to compound “Unknown@4.508” in sample “S115N05A7” (EXAMPLE 20), and compound “Unknown@RT4.526” in sample “S129N04” (EXAMPLE 22).\nThe ratio of these compounds and the LCMS chromatograms are provided below."}, "[7]": {"assay": "Catalytic test Rebaudioside A to Rebaudioside D with in-vitro expressed UDP-glucosyltransferases (Examples 20, 21), HPLC", "method": "The prepared expression medium mix was added to the plasmid solution and the solution was allowed to incubate at 30° C. for 3 hours while mixing the mixture every 45 minutes. 5 μL of the mixture was frozen whereas the remainder was used for the catalytic test for the conversion of Rebaudioside A to Rebaudioside D.\n(§5) 430 μL of a reaction mixture containing 0.5 mM Rebaudioside A, 3 mM MgCl2, 50 mM phosphate buffer (pH7.2) and 2.5 mM UDP-glucose was added to a 1.5 mL sterile microtube. 52 μl of the enzyme expression medium was added and the resulting mixture was allowed to react at 30° C. for 24 hours. 125 μL samples were taken after 2 hours, 16 hours and 24 hours and added to a 115 μL of 60% methanol and 10 μL of 2 N H2SO4. The quenched sample was centrifuged at 18,000 g for 2 minutes at RT. 200 μL was transferred to an HPLC vial and analyzed.\nThe HPLC assay was performed as follows:\nas §5, with “μL” for “μl”, “to” for “to an”\n(§6) The HPLC assay was performed as described in EXAMPLE 20."}, "[8]": {"assay": "Activity of in-vivo produced enzymes for transformation of Rebaudioside A (Example 22)", "method": "Activity tests were performed at 5 mL scale with 1,000 μL of thawed lysate for the transformation of Rebaudioside A using 0.5 mM of substrate, 2.5 mM of UDP-Glucose and 3 mM MgCl2 in 50 mM Sodium Phosphate buffer at pH 7.2. Samples were taken and analyzed by HPLC.\nas §6"}, "[9]": {"conditions": "0.5 mM Rebaudioside A, 30° C., HPLC"}}, "note": "Read-outs that look alike come from different tables or passages of the source."}
{"molecule": "B1", "values": [{"measurement": "Rebaudioside D formation", "setting": "[1]; 0.5 mM Rebaudioside A", "value": 10, "unit": "%"}, {"measurement": "Rebaudioside A conv. (reaction time)", "setting": "[1]; 0.5 mM substrate", "value": "72% (22 h.)"}, {"measurement": "Rebaudioside E formation", "setting": "[2]; UGTLB, 5 h.", "value": 4, "unit": "%"}, {"measurement": "Rubusoside conv. (reaction time)", "setting": "[2]; UGTLB, 5 h.", "value": "65% (5 h.)"}, {"measurement": "LC-MS, peak area ratio (%): REb E", "setting": "[3]", "value": 9.21, "unit": "%"}, {"measurement": "LC-MS, peak area ratio (%): Reb D", "setting": "[3]", "value": 1.29, "unit": "%"}, {"measurement": "LC-MS, peak area ratio (%): Rub", "setting": "[3]", "value": 13.49, "unit": "%"}, {"measurement": "LC-MS, peak area ratio (%): Unknown peak #1 (MW804) RT 30.70 min", "setting": "[3]", "value": 4.07, "unit": "%"}, {"measurement": "LC-MS, peak area ratio (%): Unknown peak #2 (MW804) RT 49.50 min", "setting": "[3]", "value": 66.67, "unit": "%"}, {"measurement": "LC-MS, peak area ratio (%): Unknown peak #3 (MW804) RT 50.40 min", "setting": "[3]", "value": 5.27, "unit": "%"}, {"measurement": "Rebaudioside E formation", "setting": "[4]; UGTLB, 22 h.", "value": 3, "unit": "%"}, {"measurement": "Stevioside conv. (reaction time)", "setting": "[4]; UGTLB, 22 h.", "value": "89% (22 h.)"}, {"measurement": "LC-MS, peak area ratio (%): Reb E", "setting": "[5]", "value": 3.12, "unit": "%"}, {"measurement": "LC-MS, peak area ratio (%): Stev", "setting": "[5]", "value": 43.11, "unit": "%"}, {"measurement": "LC-MS, peak area ratio (%): Unknown peak #2 (MW966) RT = 26.50 min", "setting": "[5]", "value": 53.78, "unit": "%"}]}
{"molecule": "B2", "values": [{"measurement": "Rebaudioside E formation", "setting": "[2]; reaction time UGTSL 45 h., UGTSL2 2 h.", "value": 27, "unit": "%"}, {"measurement": "Rubusoside conv. (reaction time)", "setting": "[2]; reaction time UGTSL 45 h., UGTSL2 2 h., 2.5 mM UDP-Glucose, pH 7.2", "value": "70% (45 h.)"}, {"measurement": "Steviol glycoside conversion in reaction mixture, Reb A", "setting": "[6]", "value": 49.00, "unit": "% area"}, {"measurement": "Steviol glycoside conversion in reaction mixture, Reb D", "setting": "[6]", "value": 23.73, "unit": "% area"}, {"measurement": "Steviol glycoside conversion in reaction mixture, Reb UNK (reb D2)", "setting": "[6]", "value": 21.22, "unit": "% area"}, {"measurement": "Steviol glycoside conversion in reaction mixture, Unknown@RT3.5 (reb M2)", "setting": "[6]", "value": 6.05, "unit": "% area"}, {"measurement": "Steviol glycoside conversion in reaction mixture, Reb A", "setting": "[6]; listed as S115N05A7", "value": 53.24, "unit": "% area"}, {"measurement": "Steviol glycoside conversion in reaction mixture, Reb D", "setting": "[6]; listed as S115N05A7", "value": 20.35, "unit": "% area"}, {"measurement": "Steviol glycoside conversion in reaction mixture, Reb UNK (reb D2)", "setting": "[6]; listed as S115N05A7", "value": 19.93, "unit": "% area"}, {"measurement": "Steviol glycoside conversion in reaction mixture, Unknown@RT3.5 (reb M2)", "setting": "[6]; listed as S115N05A7", "value": 6.47, "unit": "% area"}, {"measurement": "LC-MS, peak area ratio (%): REb E", "setting": "[3]", "value": 35.88, "unit": "%"}, {"measurement": "LC-MS, peak area ratio (%): Reb D", "setting": "[3]", "value": 3.45, "unit": "%"}, {"measurement": "LC-MS, peak area ratio (%): Rub", "setting": "[3]", "value": 7.82, "unit": "%"}, {"measurement": "LC-MS, peak area ratio (%): Stev", "setting": "[3]", "value": 2.37, "unit": "%"}, {"measurement": "LC-MS, peak area ratio (%): Unknown peak #1 (MW804) RT 30.70 min", "setting": "[3]", "value": 20.38, "unit": "%"}, {"measurement": "LC-MS, peak area ratio (%): Unknown peak #2 (MW804) RT 49.50 min", "setting": "[3]", "value": 27.75, "unit": "%"}, {"measurement": "LC-MS, peak area ratio (%): Unknown peak #3 (MW804) RT 50.40 min", "setting": "[3]", "value": 2.35, "unit": "%"}, {"measurement": "Steviol glycoside conversion in reaction mixture, Reb A", "setting": "[7]; [9]", "value": 46.7, "unit": "% area"}, {"measurement": "Steviol glycoside conversion in reaction mixture, Reb UNK (later identified as reb D2)", "setting": "[7]; [9]", "value": 23.3, "unit": "% area"}, {"measurement": "Conversion RebA to RebD", "setting": "[7]; in-vitro expressed enzyme", "value": "Active"}, {"measurement": "Rebaudioside E formation", "setting": "[4]; reaction time UGTSL 22 h., UGTSL2 2 h.", "value": 46, "unit": "%"}, {"measurement": "Stevioside conv. (reaction time)", "setting": "[4]; reaction time UGTSL 22 h., UGTSL2 2 h., 2.5 mM UDP-Glucose, pH 7.2", "value": "74% (22 h.)"}, {"measurement": "Conversion after 45 hrs.", "setting": "[8]; 0.5 mM, in-vivo produced enzyme lysate", "value": 62.1, "unit": "%"}, {"measurement": "Reb D selectivity", "setting": "[8]; after 45 hrs.", "value": 43.6, "unit": "%"}, {"measurement": "LC-MS, peak area ratio (%): Reb D", "setting": "[5]", "value": 0.54, "unit": "%"}, {"measurement": "LC-MS, peak area ratio (%): Reb E", "setting": "[5]", "value": 49.68, "unit": "%"}, {"measurement": "LC-MS, peak area ratio (%): Stev", "setting": "[5]", "value": 25.24, "unit": "%"}, {"measurement": "LC-MS, peak area ratio (%): Unknown peak #1 (MW966) RT = 22.60 min", "setting": "[5]", "value": 3.97, "unit": "%"}, {"measurement": "LC-MS, peak area ratio (%): Unknown peak #2 (MW966) RT = 26.50 min", "setting": "[5]", "value": 20.56, "unit": "%"}]}
